Laboratory results: the supplement of paper PMC11316812
± gives the standard deviation of the averaged measurements.

Legend:
hTERT-HMEC = assay: percentage of EdU-negative (G0-arrested) nuclei per well, 72 h; higher = more G0 arrest; conditions: reference: sequence is the full UniProt precursor, the tested protein was the secreted form or ectodomain
MCF7 = assay: as above; conditions: reference: sequence is the full UniProt precursor, the tested protein was the secreted form or ectodomain
[1] = protein concentration 0.0225 µM
[2] = protein concentration 0.0220325 µM
[3] = protein concentration 0.220325 µM
[4] = protein concentration 0.00839 µM
[5] = protein concentration 0.0839 µM
[6] = protein concentration 0.03125 µM
[7] = protein concentration 0.3125 µM
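Note: secreted proteins added to cultured cells, EdU pulse at the end, nuclei found by Hoechst imaging, EdU status from nuclear versus surrounding ring intensity ratio, PBS as neutral control.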

## MAGGRHRRVVGTLHLLLLVAALPWASRGVSPSASAWPEEKNYHQPAILNSSALRQIAEGTSISEMWQNDLQPLLIERYPGSPGSYAARQHIMQRIQRLQADWVLEIDTFLSQTPYGYRSFSNIISTLNPTAKRHLVLACHYDSKYFSHWNNRVFVGATDSAVPCAMMLELARALDKKLLSLKTVSDSKPDLSLQLIFFDGEEAFLHWSPQDSLYGSRHLAAKMASTPHPPGARGTSQLHGMDLLVLLDLIGAPNPTFPNFFPNSARWFERLQAIEHELHELGLLKDHSLEGRYFQNYSYGGVIQDDHIPFLRRGVPVLHLIPSPFPEVWHTMDDNEENLDESTIDNLNKILQVFVLEYLHL
hTERT-HMEC; [1]
  percentage of EdU-negative: 5.21 ± 0.26%
hTERT-HMEC; protein concentration 0.225 µM
  percentage of EdU-negative: 4.97 ± 1.1%
MCF7; [1]
  percentage of EdU-negative: 25.8 ± 0.78%
MCF7; protein concentration 0.225 µM
  percentage of EdU-negative: 29.91 ± 0.092%

## MAGLMTIVTSLLFLGVCAHHIIPTGSVVIPSPCCMFFVSKRIPENRVVSYQLSSRSTCLKAGVIFTTKKGQQFCGDPKQEWVQRYMKNLDAKQKKASPRARAVAVKGPVQRYPGNQTTC
hTERT-HMEC; [2]
  percentage of EdU-negative: 4.96 ± 0.78%
hTERT-HMEC; [3]
  percentage of EdU-negative: 5.694 ± 0.035%
MCF7; [2]
  percentage of EdU-negative: 23.9 ± 1.6%
MCF7; [3]
  percentage of EdU-negative: 24.7 ± 0.47%

## MAGLTAAAPRPGVLLLLLSILHPSRPGGVPGAIPGGVPGGVFYPGAGLGALGGGALGPGGKPLKPVPGGLAGAGLGAGLGAFPAVTFPGALVPGGVADAAAAYKAAKAGAGLGGVPGVGGLGVSAGAVVPQPGAGVKPGKVPGVGLPGVYPGGVLPGARFPGVGVLPGVPTGAGVKPKAPGVGGAFAGIPGVGPFGGPQPGVPLGYPIKAPKLPGGYGLPYTTGKLPYGYGPGGVAGAAGKAGYPTGTGVGPQAAAAAAAKAAAKFGAGAAGVLPGVGGAGVPGVPGAIPGIGGIAGVGTPAAAAAAAAAAKAAKYGAAAGLVPGGPGFGPGVVGVPGAGVPGVGVPGAGIPVVPGAGIPGAAVPGVVSPEAAAKAAAKAAKYGARPGVGVGGIPTYGVGAGGFPGFGVGVGGIPGVAGVPGVGGVPGVGGVPGVGISPEAQAAAAAKAAKYGAAGAGVLGGLVPGAPGAVPGVPGTGGVPGVGTPAAAAAKAAAKAAQFGLVPGVGVAPGVGVAPGVGVAPGVGLAPGVGVAPGVGVAPGVGVAPGIGPGGVAAAAKSAAKVAAKAQLRAAAGLGAGIPGLGVGVGVPGLGVGAGVPGLGVGAGVPGFGAGADEGVRRSLSPELREGDPSSSQHLPSTPSSPRVPGALAAAKAAKYGAAVPGVLGGLGALGGVGIPGGVVGAGPAAAAAAAKAAAKAAQFGLVGAAGLGGLGVGGLGVPGVGGLGGIPPAAAAKAAKYGAAGLGGVLGGAGQFPLGGVAARPGFGLSPIFPGGACLGKACGRKRK [F8WAH6]
hTERT-HMEC; [4]
  percentage of EdU-negative: 4.54 ± 0.69%
hTERT-HMEC; [5]
  percentage of EdU-negative: 6.95 ± 0.57%
MCF7; [4]
  percentage of EdU-negative: 26.3 ± 0.31%
MCF7; [5]
  percentage of EdU-negative: 25.1 ± 0.57%

## MAGPATQSPMKLMALQLLLWHSALWTVQEATPLGPASSLPQSFLLKCLEQVRKIQGDGAALQEKLVSECATYKLCHPEELVLLGHSLGIPWAPLSSCPSQALQLAGCLSQLHSGLFLYQGLLQALEGISPELGPTLDTLQLDVADFATTIWQQMEELGMAPALQPTQGAMPAFASAFQRRAGGVLVASHLQSFLEVSYRVLRHLAQP
hTERT-HMEC; [6]
  percentage of EdU-negative: 5.19 ± 0.94%
hTERT-HMEC; [7]
  percentage of EdU-negative: 9.86 ± 1.2%
MCF7; [6]
  percentage of EdU-negative: 25 ± 0.82%
MCF7; [7]
  percentage of EdU-negative: 27.5 ± 0.74%

## MAGPLRAPLLLLAILAVALAVSPAAGSSPGKPPRLVGGPMDASVEEEGVRRALDFAVGEYNKASNDMYHSRALQVVRARKQIVAGVNYFLDVELGRTTCTKTQPNLDNCPFHDQPHLKRKAFCSFQIYAVPWQGTMTLSKSTCQDA
hTERT-HMEC; [6]
  percentage of EdU-negative: 5.05 ± 0.076%
hTERT-HMEC; [7]
  percentage of EdU-negative: 5.7 ± 0.21%
MCF7; [6]
  percentage of EdU-negative: 26.2 ± 1.3%
MCF7; [7]
  percentage of EdU-negative: 26.6 ± 2.9%

## MAGPPRLLLLPLLLALARGLPGALAAQEVQQSPHCTTVPVGASVNITCSTSGGLRGIYLRQLGPQPQDIIYYEDGVVPTTDRRFRGRIDFSGSQDNLTITMHRLQLSDTGTYTCQAITEVNVYGSGTLVLVTEEQSQGWHRCSDAPPRASALPAPPTGSALPDPQTASALPDPPAASALPAALAVISFLLGLGLGVACVLARTQIKKLCSWRDKNSAACVVYEDMSHSRCNTLSSPNQYQ
hTERT-HMEC; [1]
  percentage of EdU-negative: 5.29 ± 0.21%
hTERT-HMEC; protein concentration 0.225 µM
  percentage of EdU-negative: 4.88 ± 0.12%
MCF7; [1]
  percentage of EdU-negative: 25.1 ± 0.98%
MCF7; protein concentration 0.225 µM
  percentage of EdU-negative: 24.68 ± 0.088%

## MAGPWTFTLLCGLLAATLIQATLSPTAVLILGPKVIKEKLTQELKDHNATSILQQLPLLSAMREKPAGGIPVLGSLVNTVLKHIIWLKVITANILQLQVKPSANDQELLVKIPLDMVAGFNTPLVKTIVEFHMTTEAQATIRMDTSASGPTRLVLSDCATSHGSLRIQLLHKLSFLVNALAKQVMNLLVPSLPNLVKNQLCPVIEASFNGMYADLLQLVKVPISLSIDRLEFDLLYPAIKGDTIQLYLGAKLLDSQGKVTKWFNNSAASLTMPTLDNIPFSLIVSQDVVKAAVAAVLSPEEFMVLLDSVLPESAHRLKSSIGLINEKAADKLGSTQIVKILTQDTPEFFIDQGHAKVAQLIVLEVFPSSEALRPLFTLGIEASSEAQFYTKGDQLILNLNNISSDRIQLMNSGIGWFQPDVLKNIITEIIHSILLPNQNGKLRSGVPVSLVKALGFEAAESSLTKDALVLTPASLWKPSSPVSQ [Q8TDL5]
hTERT-HMEC; [1]
  percentage of EdU-negative: 5.17 ± 0.22%
hTERT-HMEC; protein concentration 0.225 µM
  percentage of EdU-negative: 8.84 ± 0.099%
MCF7; [1]
  percentage of EdU-negative: 25.5 ± 0.91%
MCF7; protein concentration 0.225 µM
  percentage of EdU-negative: 30.5 ± 0.65%
